Our source for the IC50 values is patent publication US5919901.

In this experiment the target is T1, Rat Y4/PP1 (clone) (rat), Q63447.
T1 chain: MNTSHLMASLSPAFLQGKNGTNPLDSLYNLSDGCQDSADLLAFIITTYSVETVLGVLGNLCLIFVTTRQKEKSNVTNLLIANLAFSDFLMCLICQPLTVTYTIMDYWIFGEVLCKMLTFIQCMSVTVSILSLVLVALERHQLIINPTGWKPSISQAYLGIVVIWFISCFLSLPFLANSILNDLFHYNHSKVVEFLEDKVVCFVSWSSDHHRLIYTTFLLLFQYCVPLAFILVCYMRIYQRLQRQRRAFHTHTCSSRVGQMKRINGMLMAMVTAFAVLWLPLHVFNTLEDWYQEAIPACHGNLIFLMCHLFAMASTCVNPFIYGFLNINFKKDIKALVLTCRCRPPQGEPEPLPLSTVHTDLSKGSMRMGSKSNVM
Nature of the experiment: competition with rat [125I]PP on the rat Y4/PP1 clone. As to conditions: remark: other sources report otherwise.

Ends that are not written are not given here. A value given as a limit tells only on which side of the number the result lay.

What is called IC50 is the concentration at which inhibition is half-maximal. The low end stands for inhibition by little substance, the high end for a need for much substance. As to PAEDLARYYSALRHYINLITRQRY (ends and bridges not checked) [p(13-36)NPY, P01304], the IC50 was over 1 µM.
